Laboratory results taken from publication PMC9576733, “Cryo-EM structures of the translocational binary toxin complex CDTa-bound CDTb-pore from Clostridioides difficile” (Nature Communications, 2022).
“And” between values parts separate entries of the source, which are not always exact repeats. Identical values can stand only once.

Columns and labels:
[1] = target: CDTb-pore, wild type (chymotrypsin-activated CDTb oligomer) (Clostridioides difficile) (UniProt O32739); assay: cryo-EM structure; CDTa without His-tag added to purified WT CDTb-pore at 3-fold molar excess, unbound CDTa not removed; 10 mM HEPES pH 7.5, 1 mM CaCl2, 0.003% LMNG; classes: di-heptamer, long pore, short pore
[2] = target: CDTb-pore, wild type (chymotrypsin-activated CDTb oligomer) (Clostridioides difficile) (UniProt O32739); assay: SPR; CDTb-pore (WT, PSS, SPS) amine-coupled on SPRi-Biochip CS-HD, CDTa injected; room temperature, 50 uL/min; pH 5.5, 10 mM MES, 0.15 M NaCl, 1 mM EGTA, 0.005% Surfactant P20 (no calcium); 1:1 model; average of two measurements
[3] = target: CDTb-pore PSS-loop mutant (NSS > PSS) (Clostridioides difficile) (UniProt O32739); assay: as above
[4] = target: CDTb-pore SPS-loop mutant (NSS > SPS) (Clostridioides difficile) (UniProt O32739); assay: as above
[5] = target: CDTb-pore, wild type (chymotrypsin-activated CDTb oligomer) (Clostridioides difficile) (UniProt O32739); assay: SPR; CDTb-pore (WT, PSS, SPS) amine-coupled on SPRi-Biochip CS-HD, CDTa injected; room temperature, 50 uL/min; pH 7.4, 10 mM HEPES, 0.15 M NaCl, 1 mM EGTA, 0.005% Surfactant P20, 5 mM CaCl2; 1:1 model; average of two measurements
[6] = target: CDTb-pore PSS-loop mutant (NSS > PSS) (Clostridioides difficile) (UniProt O32739); assay: as above
[7] = target: CDTb-pore SPS-loop mutant (NSS > SPS) (Clostridioides difficile) (UniProt O32739); assay: as above
[8] = target: CDTb-pore, wild type (chymotrypsin-activated CDTb oligomer) (Clostridioides difficile) (UniProt O32739); assay: SPR; CDTb-pore (WT, PSS, SPS) amine-coupled on SPRi-Biochip CS-HD, CDTa injected; room temperature, 50 uL/min; pH 5.5, 10 mM MES, 0.15 M NaCl, 1 mM EGTA, 0.005% Surfactant P20, 5 mM CaCl2; 1:1 model; average of two measurements
[9] = target: CDTb-pore PSS-loop mutant (NSS > PSS) (Clostridioides difficile) (UniProt O32739); assay: as above
[10] = target: CDTb-pore SPS-loop mutant (NSS > SPS) (Clostridioides difficile) (UniProt O32739); assay: as above
[11] = target: CDTb-pore, wild type (chymotrypsin-activated CDTb oligomer) (Clostridioides difficile) (UniProt O32739); assay: SPR; CDTb-pore (WT, PSS, SPS) amine-coupled on SPRi-Biochip CS-HD, CDTa injected; room temperature, 50 uL/min; pH 7.4, 10 mM HEPES, 0.15 M NaCl, 1 mM EGTA, 0.005% Surfactant P20 (no calcium); 1:1 model; average of two measurements
[12] = target: CDTb-pore PSS-loop mutant (NSS > PSS) (Clostridioides difficile) (UniProt O32739); assay: as above
[13] = target: CDTb-pore SPS-loop mutant (NSS > SPS) (Clostridioides difficile) (UniProt O32739); assay: as above
[14] = target: the molecule itself; assay: density gradient ultracentrifugation; CDTb after alpha-chymotrypsin, 0.03% LMNG 1 h 37 °C (LMNG after or before chymotrypsin); 10-30% glycerol, 50 mM HEPES pH 7.5, 100 mM NaCl, 1 mM CaCl2, 0.003% LMNG, 230,139 x g 16 h; A280 of fractions; protomers to heptamer and heptamer to di-heptamer

## CDTa (enzymatic A-component of the Clostridioides difficile binary toxin CDT) (enzyme)
[1]
  stoichiometry N: 1
[2]
  Kd: 1.53 nM
  koff: 0.000763 s⁻¹
  kon: 498000 M⁻¹ s⁻¹
[3]
  Kd: 2.27 nM
  koff: 0.00132 s⁻¹
  kon: 584000 M⁻¹ s⁻¹
[4]
  Kd: 1.61 nM
  koff: 0.000709 s⁻¹
  kon: 441000 M⁻¹ s⁻¹
[5]
  Kd: 3.27 nM
  koff: 0.000619 s⁻¹
  kon: 189000 M⁻¹ s⁻¹
[6]
  Kd: 4.93 nM
  koff: 0.00108 s⁻¹
  kon: 220000 M⁻¹ s⁻¹
[7]
  Kd: 1.89 nM
  koff: 0.000521 s⁻¹
  kon: 276000 M⁻¹ s⁻¹
[8]
  Kd: 2.86 nM
  koff: 0.000436 s⁻¹
[9]
  Kd: 2.29 nM
  koff: 0.000376 s⁻¹
  kon: 164000 M⁻¹ s⁻¹
[10]
  Kd: 2.69 nM
  koff: 0.000326 s⁻¹
  kon: 121000 M⁻¹ s⁻¹
[11]
  Kd: 28.6 nM
  koff: 0.00413 s⁻¹
  kon: 144000 M⁻¹ s⁻¹
[12]
  Kd: 55.1 nM
  koff: 0.00567 s⁻¹
  kon: 103000 M⁻¹ s⁻¹
[13]
  Kd: 26.2 nM
  koff: 0.00304 s⁻¹
  kon: 116000 M⁻¹ s⁻¹

## CDTa (enzymatic A-component of the Clostridioides difficile binary toxin CDT) (CDTa injected)
[8]
  kon: 152000 M⁻¹ s⁻¹

B1: CDTb-pore, wild type (chymotrypsin-activated CDTb oligomer) (complex)
chain: WEDEDLDTDNDNIPDSYERNGYTIKDLIAVKWEDSFAEQGYKKYVSNYLESNTAGDPYTDYEKASGSFDKAIKTEARDPLVAAYPIVGVGMEKLIISTNEHASTDQGKTVSRATTNSKTESNTAGVSVNVGYQNGFTANVTTNYSHTTDNSTAVQDSNGESWNTGLSINKGESAYINANVRYYNTGTAPMYKVTPTTNLVLDGDTLSTIKAQENQIGNNLSPGDTYPKKGLSPLALNTMDQFSSRLIPINYDQLKKLDAGKQIKLETTQVSGNFGTKNSSGQIVTEGNSWSDYISQIDSISASIILDTENESYERRVTAKNLQDPEDKTPELTIGEAIEKAFGATKKDGLLYFNDIPIDESCVELIFDDNTANKIKDSLKTLSDKKIYNVKLERGMNILIKTPTYFTNFDDYNNYPSTWSNVNTTNQDGLQGSANKLNGETKIKIPMSELKPYKRYVFSGYSKDPLTSNSIIVKIKAKEEKTDYLVPEQGYTKFSYEFETTEKDSSNIEITLIGSGTTYLDNLSITELNSTPEILDEPEVKIPTDQEIMDAHKIYFADLNFNPSTGNTYINGMYFAPTQTNKEALDYIQKYRVEATLQYSGFKDIGTKDKEMRNYLGDPNQPKTNYVNLRSYFTGGENIMTYKKLRIYAITPDDRELLVLSVD
notes: CDTb, Clostridioides difficile, UniProt O32739; cloned as amino acids 40-876 (without signal peptide); domains after cleavage are printed as 1' (W214-A296, domain 1 without the pro-peptide) to 4 (T617-D876); Heptameric pore; also found as a di-heptamer (14 chains); also called WT CDTb; NSS-loop
[14]
  stoichiometry N: 14 and 7

B2: CDTb F774G mutant (chymotrypsin-activated oligomer) (complex)
chain: WEDEDLDTDNDNIPDSYERNGYTIKDLIAVKWEDSFAEQGYKKYVSNYLESNTAGDPYTDYEKASGSFDKAIKTEARDPLVAAYPIVGVGMEKLIISTNEHASTDQGKTVSRATTNSKTESNTAGVSVNVGYQNGFTANVTTNYSHTTDNSTAVQDSNGESWNTGLSINKGESAYINANVRYYNTGTAPMYKVTPTTNLVLDGDTLSTIKAQENQIGNNLSPGDTYPKKGLSPLALNTMDQFSSRLIPINYDQLKKLDAGKQIKLETTQVSGNFGTKNSSGQIVTEGNSWSDYISQIDSISASIILDTENESYERRVTAKNLQDPEDKTPELTIGEAIEKAFGATKKDGLLYFNDIPIDESCVELIFDDNTANKIKDSLKTLSDKKIYNVKLERGMNILIKTPTYFTNFDDYNNYPSTWSNVNTTNQDGLQGSANKLNGETKIKIPMSELKPYKRYVFSGYSKDPLTSNSIIVKIKAKEEKTDYLVPEQGYTKFSYEFETTEKDSSNIEITLIGSGTTYLDNLSITELNSTPEILDEPEVKIPTDQEIMDAHKIYFADLNGNPSTGNTYINGMYFAPTQTNKEALDYIQKYRVEATLQYSGFKDIGTKDKEMRNYLGDPNQPKTNYVNLRSYFTGGENIMTYKKLRIYAITPDDRELLVLSVD
notes: CDTb, Clostridioides difficile, UniProt O32739; cloned as amino acids 40-876; domains after cleavage printed as W214-D876; Prepared by the same protocol as wild type, without LMNG pretreatment; source: E. coli BL21 Star (DE3), purified as wild type (Glutathione Sepharose 4B), alpha-chymotrypsin, LMNG
[14]
  stoichiometry N: 14 and 7

B3: CDTb F774L mutant (chymotrypsin-activated oligomer) (complex)
chain: WEDEDLDTDNDNIPDSYERNGYTIKDLIAVKWEDSFAEQGYKKYVSNYLESNTAGDPYTDYEKASGSFDKAIKTEARDPLVAAYPIVGVGMEKLIISTNEHASTDQGKTVSRATTNSKTESNTAGVSVNVGYQNGFTANVTTNYSHTTDNSTAVQDSNGESWNTGLSINKGESAYINANVRYYNTGTAPMYKVTPTTNLVLDGDTLSTIKAQENQIGNNLSPGDTYPKKGLSPLALNTMDQFSSRLIPINYDQLKKLDAGKQIKLETTQVSGNFGTKNSSGQIVTEGNSWSDYISQIDSISASIILDTENESYERRVTAKNLQDPEDKTPELTIGEAIEKAFGATKKDGLLYFNDIPIDESCVELIFDDNTANKIKDSLKTLSDKKIYNVKLERGMNILIKTPTYFTNFDDYNNYPSTWSNVNTTNQDGLQGSANKLNGETKIKIPMSELKPYKRYVFSGYSKDPLTSNSIIVKIKAKEEKTDYLVPEQGYTKFSYEFETTEKDSSNIEITLIGSGTTYLDNLSITELNSTPEILDEPEVKIPTDQEIMDAHKIYFADLNLNPSTGNTYINGMYFAPTQTNKEALDYIQKYRVEATLQYSGFKDIGTKDKEMRNYLGDPNQPKTNYVNLRSYFTGGENIMTYKKLRIYAITPDDRELLVLSVD
notes: as for B2
[14]
  stoichiometry N: 14 and 7
